experiment: soluble on expression in E. coli; label from the status in PepcDB or PDB records

Sequence | soluble on expression in E. coli
MKKRLSILIAGLASLSVNAATEPWASPEAEVLSRAQIQQVQGKQTYTYVRCWYRPAATHDDPYTTWEWAKNADGSYYTIQGYWWSSIRQKNMFYTTVQPETLLERCEETLGVNHDFADITYFAADHRFSYNHTIWSNDPEVQSNRISKVIAFGDSLSDTGNIFNASQWRFPNPDSWFLGHFSNGFVWTEYLAQGLNVPLYNWAVGGAAGRNQYVALTGVYEQVSSYLSYMRLAKNYQPENSLFTLEFGLNDFMNYNRSLADVKADYSSALIRLIDAGAKNLVLMTLPDATRAPQFQYATQEQIDTVRSKIIGMNAFIREQARYYQMQGIRIVLFDAYTLFDSITTQPEQHGFANANSPCLDIRRNSAADYLLSHSLSAECAKQGSDRFVFWEVTHPTTAIHHYLAEQILATEMAQFPL | not soluble
DAPAGGNAFEEMEKHAKEFQKTFSEQFNSLVNSKNTQDFNKALKDGSDSVLQQLSAFSSSLQGAISDANGKAKEALEQARQNVEKTAEELRKAHPDVEKEANAFKDKLQAAVQTTVQESQKLAKEVASNMEETNKKLAPKIKQAYDDFVKHAEEVQKKLHEAATKQ | soluble
AQCEATIESNDAMQYDLKEMVVDKSCKQFTVHLKHVGKMAKSAMGHNWVLTKEADKEGVATDGMNAGLAQDYVKAGDTRVIAHTKVIGGGESDSVTFDVSKLTPGEAYAYFCSFPGHWAMHKGTLKLSN | soluble
AHHHHHHGSINNAQPPIYEEGLEELMQELKGKYHATNDYRWAILNSDITFITVGTPSKPDGSIDLTHVKQAAKSIGKALRDKEDYHVVVVKSTVLPGTTEEVVKPILEKHSGKKAFKDFGLAMNPEFLREGVALKDFLNPDRIVLGVQDEKTKKILEELYEPINAPKLIVDIKTAEMIKYASNAFLATKISFANEIGNICKKLGIDSWKVFEGVGLDHRISPHFFKTGIGFGGSCFPKDVKALIKKAEEIGENPLILKAVIEVNERQPLKMIELLKKHIPELKGRKIGVLGLAFKPNTDDVRETRAYIIIKKLLEEGASVIAYDPKAMENFKRFYPDVSGGIEYATSPEDVLKSTEIILIVTEWPDFEELDYSGKIVIDGRRIKAAERTARIYEGVCW | soluble
MGSDKIHHHHHHMRRVNRPAPLSERQYEYMQRCINSWFNVAEGGKRGGKNVLQTLIFCSLLETHKNKIHLVAGVSSATAKLNILDCDGYGLLNYFEGRCREGKYKDRDCVYVQTKTGEKIVLVSGGGKDGDEKLIKGNTYGMAYVTEANECHQKFLKEVFDRTLSSTDRKIFHDLNPKEEEHWYYTEILKFHEEQQANDENYGYNYGHFTLVDNMSMSDEKIRTVLKTYQKGTVWYKRDIKGERAVAEGIIFRKFKENNIPYLCDDSILKYNKDGELFPRPSKVIIGMDFGGNGSMTTMVCSLYFRGYHFIYPVEEDYLELSPDIDANNICDKYIEFYRRCAAKYERIDWTFPDSASTTMINSLRSAAKKDGLRYDHIAGCRKNEISERPRTVDLLLNTGRMKVHKRCVNLRKAIGTLKWDEKHPNIPEDKNIGNCNDWWDALCYTMLDFIEYIDLDR | not soluble
MKTVRIETFGCKVNQYESEYMAEQLEKAGYVVLPDGNAAYYIVNSCAVTKEVEKKVKRLIKSIRNRNKNAKIILTGCFAQLSPDEAKNLPVDMVLGIDEKKHIVDHINSLNGKQQVVVSEPGRPVYEKVKGSFEDRTRSYIKVEDGCDNTCTYCAIRLARGTRIRSKPLEIFKEEFAEMVMKGYKEIVITGVNLGKYGKDMGSSLAELLKVIEKVPGDYRVRLSSINVEDVNDEIVKAFKRNPRLCPHLHISVQSGSDDVLKRMGRKYKISDFMRVVDKLRSIDPDFSITTDIIVGFPGETDADFQRTLELVEKVEFSRVHIFRFSPRPGTPASRMEGGVPESKKKERLDVLKEKAKDVSIRYRKRIIGKERKVLAEWYVMKGVLSGYDEYYVKHEFVGNRVGEFHSVRVKSLSEEGVISCRADMVEGKVPARGLEHHHHHH | soluble
MHHHHHHLVPRGSMLDFEKPLFEIRNKIESLKESQDKNDVDLQEEIDMLEASLERETKKIYTNLKPWDRVQIARLQERPTTLDYIPYIFDSFMELHGDRNFRDDPAMIGGIGFLNGRAVTVIGQQRGKDTKDNIYRNFGMAHPEGYRKALRLMKQAEKFNRPIFTFIDTKGAYPGKAAEERGQSESIATNLIEMASLKVPVIAIVIGEGGSGGALGIGIANKVLMLENSTYSVISPEGAAALLWKDSNLAKIAAETMKITAHDIKQLGIIDDVISEPLGGAHKDIEQQALAIKSAFVAQLDSLESLSRDEIANDRFEKFRNIGSYIE | soluble
MTPLSSPLSQYWQTVVERLPEGFTETSLSAQAKSVLTFSDFALDSVIAHPEWLAELESASPQADEWRHYAGWLQEALAGVCDDASLMRELRLFRRRIMVRIAWAQTLSLVDDETILQQLSHLAETLIVGARDWLYAACCREWGTPCNPQGVPQPLLILGMGKLGGGELNFSSDIDLIFAWPEHGETRGGRRELDNAQFFTRLGQRLIKALDQPTMDGFVYRVDMRLRPFGDSGPLVLSFAALEDYYQEQGRDWERYAMVKARLMGDNDDAWSRELRAMLRPFVFRRYIDFSVIQSLRNMKGMIAREVRRRGLKDNIKLGAGGIREIEFIVQVFQLIRGGREPSLQSRSLLPTLDAIAALHLLPENDVAQLRVAYLFLRRLENLLQSINDEQTQTLPADDLNRARLAWGMKAENWPQLVGELTDHMANVRRVFNELIGDDEADTPQEEERSEPWREVWQDALQEDDSTPVLAHLADEDRRQVLTLIADFRKELDKRPIGPRGRQVLDQLMPHLLADVCSREDAAVTLSRITPLLAGIVTRTTYLELLSEFPGALKHLIMLCAASPMIASQLARYPLLLDELLDPGTLYQPTATDAYRDELRQYLLRVPEEDEEQQLEALRQFKQAQLLRIAAADIAGTLPVMKVSDHLTWLAEAMIDAVVQQAWTQMVARYGQPAHLDERQGRGFAVVGYGKLGGWELGYSSDLDLIFLHDCPMDVMTNGEREIDGRQFYLRLAQRIMHLFSTRTSSGILYEVDARLRPSGAAGMLVTSADAFADYQQHEAWTWEHQALVRARVVYGDPQLTSQFDAVRRTIMTTARDGKTLQTEVREMREKMRAHLGNKHRDRFDIKADEGGITDIEFIAQYLVLRYAHEKPKLTRWSDNVRILELLAQNGIMDEHEAQALTVAYTTLRDELHHLALQELPGHVAQTCFSKERALVQASWRKWLVAV | soluble
MGSDKIHHHHHHMEVFVLGCAGSGKSTFVRSFSEFLQERGYSVKCVNLDPASDPAYRADKNVREFVKTENVMVEYGLGVNGALIKSVEIASEHAEELKAEGDFVLYDTPGQLELFIYSEAGRKFVRELSGSFSCSLFLVDLTTVTDPESLLSAIMQDVIVSLRLSLPTLTAFTKSDVADVDVRSLLGEIKHREGVLAELMEKLVDFIELTTIPYRPIKISNIKKTGYEELFSALYELFCAAET | not soluble
ILEQDLNDFMSTGAHGLDLYQLVVGGTAPMLNLVEKGKIPPPATTPEKAGMYELGVNFMAKHHMKQLSVNHWAVDNRERSLYNSLAKTYAE | not soluble
MSLTYILRRSQLLLIVSSYQLVHYLCSQLSSLKDASCMCAYILTTLYKDIDMELAEKDKGRDFTLRNARMDDIDQIIKINRLTLPENYPYYFFVEHLKEYGLAFFVAIVDNSVVGYIMPRIEWGFSNIKQLPSLVRKGHVVSIAVLEEYRRKGIATTLLEASMKSMKNDYNAEEIYLEVRVSNYPAIALYEKLNFKKVKVLKGYYADGEDAYLMARPLEGHHHHHH | not soluble
MAQQQNPYYGTGFYQPSGTYVQPQQMTQQQQQAMQQQTAQAAQAQYAISQGMLPLEQSYIENILRLNKGKQATVVMTYERGSSLGTQSYTGIIEAAGRDHIVISEPQSGKRYLLLMIYLDYVEFPEEITYLPSQQATYTPRP | soluble
GSMSLNDFLSSVLPVSEQFEYLSLQSIPLETHAVVTPNKDDKRVPKSTIKTQHFFSLFHQGKVFFSLEVYVYVTLWDEADAERLIFVSKADTNGYCNTRVSVRDITKIILEFILSIDPNYYLQKVKPAIRSTCPREILTKICLFTRPASQYLFPDSSKNSKKHILNGEELMKWWGFILDRLLIECFQNDTQAKLRIPGEDPARVRSYLRGMKYPLWQVGDIFTSKENSLAVYNIPLFPDDPKARFIHQLAEEDRLLKVSLSSFWIELQERQEFKLSVTSSVMGISGYSLATPSLFPSSADVIVPKSRKQFRAIKKYITGEEYDTEEGAIEAFTNIRDFLLLRMATNLQSLTGKREHRERNQPVPASNINTLAITMLKPRKKAKALPKT | soluble
DPSEPGHADHLTAVMADAQPAIVLTNNASAAAVRRFFSALPGAQRPRIISIDSLPDTLAQSYQIPTPSMAAAAINPVDLPAFLQYTSGSTRTPAGVVLTNRSIVTNVLQIFAAAQLKTPLRLVSWLPL | not soluble
MDTVNNYRVLEHKAAGHDGTLTDGDGLLIFKPAFPQELEFYKAIQVRDVSRRKSSADGDAPLCSWMPTYLGVLNEGAKIEQSGDAALLKIDERLSDSTDNLDSIPVKSEKSKQYLVLENLLYGFSKPNILDIKLGKTLYDSKASLEKRERMKRVSETTTSGSLGFRICGMKIQKNPSVLNQLSLEYYEEEADSDYIFINKLYGRSRTDQNVSDAIELYFNNPHLSDARKHQLKKTFLKRLQLFYNTMLEEEVRMISSSLLFIYEGDPERWELLNDVDKLMRDDFIDDDDDDDDNDDDDDDDAEGSSEGPKDKKTTGSLSSMSLIDFAHSEITPGKGYDENVIEGVETLLDIFMKFLEHHHHHH | soluble
MSSFVPNKEQTRTVLIFCFHLKKTAAESHRMLVEAFGEQVPTVKTCERWFQRFKSGDFDVDDKEHGKPPKRYEDAELQALLDEDDAQTQKQLAEQLEVSQQAVSNRLREMGKIQKVGRWVPHELNERQMERRKNTCEILLSRYKRKSFLHRIVTGDEKWIFFVNPKRKKSYVDPGQPATSTARPNRFGKKTMLCVWWDQSGVIYYELLKPGETVNAARYQQQLINLNRALQRKRPEYQKRQHRVIFLHDNAPSHTARAVRDTLETLNWEVLPHAAYSPDLAPSDYHLFASMGHALAEQRFDSYESVKKWLDEWFAAKDDEFYWRGIHKLPERWEKCVASDGKYFE | soluble
MGSDKIHHHHHHMKKILYLHAGAELYGADKVLLELIKGLDKNEFEAHVILPNDGVLVPALREVGAQVEVINYPILRRKYFNPKGIFDYFISYHHYSKQIAQYAIENKVDIIHNNTTAVLEGIYLKRKLKLPLLWHVHEIIVKPKFISDSINFLMGRFADKIVTVSQAVANHIKQSPHIKDDQISVIYNGVDNKVYYQSDARSVRERFDIDEEALVIGMVGRVNAWKGQGDFLEAVAPILEQNPKAIAFIAGSAFEGEEWRVVELEKKISQLKVSSQVRRIDYYANTTELYNMFDIFVLPSTNPDPLPTVVLEAMACGKPVVGYRHGGVCEMVKEGVNGFLVTPNSPLNLSKVILQLSENINLRKKIGNNSIERQKEHFSLKSYVKNFSKVYTSLKVY | not soluble
MEGIDMLDIKLIRENPELVKNDLIKRGELEKVKWVDEILKLDTEWRTKLKEINRLRHERNKIAVEIGKRRKKGEPVDELLAKSREIVKRIGELENEVEELKKKIDYYLWRLPNITHPSVPVGKDENDNVPIRFWGKARVWKGHLERFLEQSQGKMEYEILEWKPKLHVDLLEILGGADFARAAKVSGSRFYYLLNEIVILDLALIRFALDRLIEKGFTPVIPPYMVRRFVEEGSTSFEDFEDVIYKVEDEDLYLIPTAEHPLAGMHANEILDGKDLPLLYVGVSPCFRKEAGTAGKDTKGIFRVHQFHKVEQFVYSRPEESWEWHEKIIRNAEELFQELEIPYRVVNICTGDLGYVAAKKYDIEAWMPGQGKFREVVSASNCTDWQARRLNIRFRDRTDEKPRYVHTLNSTAIATSRAIVAILENHQEEDGTVRIPKVLWKYTGFKEIVPVEKKERCCAT | soluble
